# From PMC11107207, “Utility of protein–protein binding surfaces composed of anti-parallel alpha-helices and beta-sheets selected by phage display” (The Journal of Biological Chemistry, 2024)
# B1: WT CC4-MBP (domain or fragment, mouse)
# chain: PMRNPTDSLYCCDRAEDHACQNACKRILMSKKTEMEIVDGLIEGCKTQPLPQDPLWQCFLESSQS
# notes: mouse RECK, CC domain 4 (CC4), a 4-helix bundle of 65 amino acids; also called RECK(CC4); source: E. coli SHuffle, purified (Ni-NTA)
# Target: T1, APCDD1 bait fused to the C terminus of Fc (mouse, UniProt Q3U128 27-492)
# T1 construct: mouse APCDD1, entire extracellular domain, fused to the C terminus of Fc; secreted with the mouse FZD8 signal peptide; also called Fc-bait; source: HEK293T, transiently transfected, serum-free conditioned medium; captured on proteinG; not shown: Fc (human IgG1), N-terminal, kept
# T1 sequence (Q3U128 27-492): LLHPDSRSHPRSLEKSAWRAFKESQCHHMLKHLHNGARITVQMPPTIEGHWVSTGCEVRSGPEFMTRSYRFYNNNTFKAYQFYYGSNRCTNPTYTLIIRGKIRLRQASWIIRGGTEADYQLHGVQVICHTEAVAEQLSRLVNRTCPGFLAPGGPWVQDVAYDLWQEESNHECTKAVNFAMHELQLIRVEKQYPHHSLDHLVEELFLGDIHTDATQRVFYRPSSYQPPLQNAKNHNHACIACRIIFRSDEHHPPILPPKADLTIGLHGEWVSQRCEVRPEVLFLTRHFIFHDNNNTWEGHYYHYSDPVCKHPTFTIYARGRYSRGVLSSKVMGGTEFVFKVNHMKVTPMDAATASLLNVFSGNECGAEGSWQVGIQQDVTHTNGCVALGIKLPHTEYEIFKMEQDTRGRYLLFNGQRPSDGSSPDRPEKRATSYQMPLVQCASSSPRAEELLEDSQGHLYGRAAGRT
# Assay: SPR; Biacore, single-cycle kinetics/affinity, five-point dose response; bait-Fc on a proteinG chip; CC4-MBP in the mobile phase; done at Cayman Chemical
# Conditions: both partners purified
binder,measurement,value
B1,Kd,> 50 µM
